Reference: US20170173114A1, “METHODS AND COMPOSITIONS FOR INDUCTION OF UCP1 EXPRESSION” (Joslin Diabetes Center, Inc., priority 2014, published 2017)

Tests used:
UCP1 = UCP1 mRNA expression in SVF cells from subcutaneous white adipose tissue (SQ-SVF); format: cell-based, C57BL/6 mice; conditions: growth media, 3 days; vs control
Description: Eight 6-week old C57BL/6 male mice were sacrificed. Interscapular BAT and axillary subcutaneous WAT were removed, minced and digested with 1 mg/ml collagenase for 45 minutes at 37° C. in DMEM/F12 media, containing 1% BSA and antibiotics. Digested tissues were filtered through sterile 150 μm nylon mesh and centrifuged at 250×g for 5 minutes. The floating fractions consisting of adipocytes were discarded and the pellets representing the SVF were then resuspended in erythrocyte lysis buffer (154 mM NH4Cl, 10 mM KHCO3, 0.1 mM EDTA) for 10 minutes to remove red blood cells. The cells were further centrifuged at 500×g for 5 minutes, plated at 8×10^5 cells/well of a 24-well plate and grown at 37° C. in DMEM/F12 supplemented with 10% FBS at 37° C.
To determine if FGF6 treatment of primary adipose progenitors could also increase UCP1 expression as observed in Example 1, stromo-vascular fraction (SVF) cells, which comprise adipocyte progenitors, were isolated from interscapular brown adipose tissue (BAT-SVF) and subcutaneous white adipose tissue (SQ-SVF). SVF cells were subsequently treated with FGF6 or FGF21 in growth media (DMEM+10% FBS) for 3 days, followed by determination of UCP1 expression. As described in FIGS. 9A and 9B, FGF21 treatment had little effect on UCP1 mRNA expression in either type of SVF cells, as compared to the control. […]

WT-1 brown preadipocytes = test: Seahorse Bioanalyzer cellular respiration in WT-1 brown preadipocytes; format: cell-based, murine
Excerpt: The Seahorse XF24 (Seahorse Bioscience, http://www.seahorsebio.com/) was utilized for respirometry to measure oxygen consumption rates (OCR; indicating oxidative phosphorylation) and extracellular acidification rates (ECAR; indicating extracellular pH) in mature brown adipocytes. The cell plates and assay cartridges for the Seahorse XF24 have four ports allowing for drug delivery to individual wells during measurement of the metabolic parameters. For a typical bioenergetic profile, cells are first treated with oligomycin to block ATP synthase, FCCP as an uncoupler and Rotenone to block Complex 1 of the ETC (all from Sigma). Example 2 provides additional details regarding the general method. Data provided in the Figures (e.g., FIG. 27) based on the Seahorse Bioanalyzer includes a bottom horizontal line which represents the baseline of the mechanics of the machine and is not related to the experiment.
A profile of cellular respiration was developed by utilizing well-characterized mitochondrial toxins, as described in FIG. 5B. First, basal respiration was measured, followed by injection of oligomycin (an inhibitor of ATP synthase which allows measurement of ATP turnover). Then, the uncoupler FCCP (carbonilcyanide p-triflouromethoxyphenylhydrazone) was injected to measure respiratory capacity, followed by the complex 1 inhibitor rotenone (which prevents electron transfer activity and leaves only non-mitochondrial activity to be measured).
Similar results were observed when WT-1 brown preadipocytes were treated with 200 ng/mL of FGF6 for 24 hrs using the Seahorse Bioanalyzer.
The role of PGs in regulating mitochondrial function and cellular glucose uptake was also assessed. WT-1 brown preadipocytes were treated with PGE2, PGI2 and FGF6 in growth media (DMEM+10% FBS) for two days. Similar to treatment with FGF6, treatment with PGE2 and PGI2 enhanced oxygen consumption and glucose uptake, as described in FIGS. 27A and 27B, respectively.

B1: FGF6: fibroblast growth factor 6; recombinant human FGF from R&D Systems, or mouse FGF6 cDNA overexpressed by lentiviral vector (protein)
chain: KRQRRLYCNVGIGFHLQVLPDGRISGTHEENPYSLLEISTVERGVVSLFGVRSALFVAMNSKGRLYATPSFQEECKFRETLLPNNYNAYESDLYQGTYIALSKYGRVKRGSKVSPIMTVTHFLPRI
increase in UCP1 mRNA expression in SVF from subcutaneous WAT (UCP1): ~200 fold | cellular respiration (basal respiration, ATP turnover, proton leak, respiratory capacity) (WT-1 brown preadipocytes; FGF6 overexpressing WT-1 vs control cells): increase in all tested aspects of cellular respiration | uncoupled respiration (WT-1 brown preadipocytes; WT-1 treated with 200 ng/mL for 24 hrs): elevation in uncoupled respiration | cellular respiration (basal respiration, ATP turnover, proton leak, respiratory capacity) (WT-1 brown preadipocytes; WT-1 treated with 200 ng/mL for 24 hrs vs control cells): coordinated increase in all aspects of cellular respiration
